# According to the supplement of paper PMC12764529:
# ± gives the half width of the 95% confidence interval.
# Key:
# [1] = folding stability dG unfold (combined trypsin and chymotrypsin); higher = more stable
# Procedure, shortened: (§1)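 Unfolding free energy was derived, per protease or combined, by relating Bayesian-fitted K50 values from sequencing counts to a sequence-predicted unfolded-state K50 and a shared folded-state K50. The underlying digests exposed cysteine-free mini-proteins under 80 residues, in a PA-tagged cDNA display construct, to trypsin and chymotrypsin at 11 threefold-diluted concentrations and to a no-protease condition. A filter kept only designs with AlphaFold2 dimer inter-PAE above 15.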
# [2] = folding stability dG unfold from trypsin proteolysis; higher = more stable
# Procedure, shortened: as §1
# [3] = folding stability dG unfold from chymotrypsin proteolysis; higher = more stable
# Procedure, shortened: as §1
Sequence,folding stability dG unfold [1] [kcal/mol],folding stability dG unfold [2] [kcal/mol],folding stability dG unfold [3] [kcal/mol]
SAGGSAGGSAGGMTLTIPEEVLKKALEEGDEELLKEVVEKAGVKPEDTEVIAVTPEDLLESAGGSAGGSAGG [r7_7_JUSTAS],0.822 ± 0.12,0.56 ± 0.072,0.919 ± 0.07
SAELTIEITVPPGKSVEEVLAEAKALAEELGLEIVEVRVERDENGEVRVTVVIKLPEELTEEQRKALLESAG [r14_110_TrROS_Hall],3.02 ± 0.21,3.06 ± 0.17,2.89 ± 0.13
SAGGSKMEPGPVKIKVTDGGEEHTFDFQVSVMPDPDGRPMIMFSFPDGNPLSIPLDDAEKITDIEVSAGGSA [r2_297_TrROS],0.106 ± 0.18,0.322 ± 0.11,-0.141 ± 0.29
SAGGSAGGSAGGPAAGEKVVAVGVNPNGETSVREFTVHPDDPLGEVYTEDGTRWYFYPGTSAGGSAGGSAGG [r7_132_TrMRF],0.342 ± 0.15,0.303 ± 0.091,0.338 ± 0.23
SAGGMIPVSPEQYKAVEKLLKEGKDGSTVLVKTEDGRYIEIDPAGTARFFGDKPKEFPLEKIKKIIPSAGGS [r16_664_TrMRF],0.235 ± 0.12,-0.209 ± 0.13,0.469 ± 0.14
SAGGSAGGSAGGSKKIVIRVKDKDGNEREIVLEVPEEELTEEEIAELAKKFPNAEIEVLSAGGSAGGSAGGS [r4_422_TrROS_Hall],1.96 ± 0.13,2.48 ± 0.13,1.02 ± 0.053
SAGGSAGGSKWIKIMYMIPPGDPEEIIEKLLPPGYKIEEVEVQRMPGYFMVDITIRDEDPDAISAGGSAGGS [r12_445_TrROS],2.37 ± 0.21,2.46 ± 0.11,2.37 ± 0.16
SKVEIEVERLPDGTLLVRATAEIPGIPGEKIELAVLVRLPAPERVEVRLLAAPPVETVTETRTYSEEEKKSA [r9_1009_TrROS_Hall],1.46 ± 0.17,1.27 ± 0.12,1.52 ± 0.11
SAGGSAGGMLSPEEAEAIARALEAAGRPVTELVVTEHPEGTATVTLTVRYPDGSTETLPLSLPASAGGSAGG [r6_762_JUSTAS],1.05 ± 0.2,1.27 ± 0.035,0.782 ± 0.1
SAGGERERLLTLEVEIDVPPGVSPEEIAARLAALLPPGAEIERVEIRYDPATRKITVRVVIRLPEGLSAGGS [r16_396_TrROS_Hall],3.25 ± 0.29,3.59 ± 0.25,2.78 ± 0.093
SAGGSMYLIRITVRNKDGEEVLTIERRVRLEDGKSLEEVAEELRRALESLPNLEVVDVEVVPLEELSAGGSA [r2_192_TrROS_Hall],3.99 ± 0.058,4.3 ± 0.072,3.797 ± 0.019
SAGGAPVGKFKFELNFPELGENVRSVEATVDPVKGTVTVNFELPGSGKPLTLTVPVKLVSPDNPELFSAGGS [r8_193_TrMRF],0.613 ± 0.082,0.37 ± 0.059,0.759 ± 0.12
SAGGLTVVSVDPSTNTITIKLGNKDIEITVPPDRPPEVTFTRDPSGTYTITITTEGSTTTYTIPLSQLPSAG [r5_500_JUSTAS],2.85 ± 0.07,2.45 ± 0.052,3.143 ± 0.015
SAGGSAGGSAGGPVVIRLKVDMSPEEVEALAKELASLPNVKVEWDEESRVLTVTLSEEDLSAGGSAGGSAGG [r7_219_TrROS_Hall],2.72 ± 0.099,2.46 ± 0.09,2.98 ± 0.056
SAGGSAGGSAGGSSMVFELDGVRIVVTEDEVVFYPPETGKPVVLPMSNPEVQELIKELVSAGGSAGGSAGGS [r4_353_TrMRF],1.82 ± 0.083,1.87 ± 0.054,1.78 ± 0.039
SAGGPPVTIMIRLPPLQEQLPPEWLEKLKNIRVPNGHPIKDIDVQPHNGRWVIMIKVDSPEQARDIIRSAGG [r13_269_TrROS],1.75 ± 0.13,1.66 ± 0.048,1.89 ± 0.053
SAGGSAGGMVEEIIEEFKKKGYNPEVEVRKTSPETTVVTLKLPDKEVIVEVKPLTPEELEEILRSAGGSAGG [r6_786_JUSTAS],0.824 ± 0.15,0.371 ± 0.052,1.05 ± 0.089
SAGGSAGGSASMTTLEIEIELDESDIEKVKEELKKELPKNVKVIIHAYDKNGNIIEEIEIEFSAGGSAGGSA [r18_188_JUSTAS],1.6 ± 0.17,1.33 ± 0.036,1.61 ± 0.097
SAGTAEEAKELARFFARELAPRNGMDVEIPDIKVETDPENGWIRITVEITFRWPHGRKQKHPFTIQIPVSAG [r5_381_TrROS],1.47 ± 0.063,1.48 ± 0.047,1.25 ± 0.096
SAGGSAGGSAGGSEEILDVKVDEKENTLVITTKLPSGGTTTKEIKVENVPPFPESNVKVSAGGSAGGSAGGS [r4_372_JUSTAS],0.0453 ± 0.14,-0.536 ± 0.072,0.31 ± 0.036
SAGDLSPSDTVDLEVTPVKVGDKWVHEVRVTVTLPDGSSLRSTLRLPPELGPPRRGRLSVPEFVALVAASAG [r5_831_JUSTAS],2.14 ± 0.11,1.85 ± 0.024,2.39 ± 0.044
